Where a chain is given by its changes, count along the chain named. Bridges are numbered along the chain shown (N, C = ends). [ ]: non-standard residue; d: D form. R8 = C=CCCCCCC[C@@](C)(N)C(=O)O; S5 = C=CCCC[C@](C)(N)C(=O)O
T1: C-terminally 6x Histidine-tagged Beta-Catenin (aa 134-668, 59 KD) (UniProt P35222 134-668)
T1 construct: range 134-668; Armadillo repeat region
T1 sequence: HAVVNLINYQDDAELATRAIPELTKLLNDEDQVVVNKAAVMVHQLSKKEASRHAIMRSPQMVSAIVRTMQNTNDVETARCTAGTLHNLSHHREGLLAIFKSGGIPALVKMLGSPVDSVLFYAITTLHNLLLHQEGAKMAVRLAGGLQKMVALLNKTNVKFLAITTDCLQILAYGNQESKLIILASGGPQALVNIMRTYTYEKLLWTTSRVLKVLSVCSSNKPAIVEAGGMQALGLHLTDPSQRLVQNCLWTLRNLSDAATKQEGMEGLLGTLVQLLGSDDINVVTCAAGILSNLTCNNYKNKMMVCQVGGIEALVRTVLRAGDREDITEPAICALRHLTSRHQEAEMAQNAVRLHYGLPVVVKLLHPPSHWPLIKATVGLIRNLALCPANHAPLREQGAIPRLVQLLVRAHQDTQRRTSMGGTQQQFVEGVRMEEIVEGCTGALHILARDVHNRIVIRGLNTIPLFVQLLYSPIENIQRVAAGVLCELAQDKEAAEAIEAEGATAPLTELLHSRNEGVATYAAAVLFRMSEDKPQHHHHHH

B1: SP16 (peptide)
peptide: Ac-LGANDELISF[S5]DEG[S5]QEEKSSN-NH2
modifications: staple 11-15
SMILES: CC[C@H](C)[C@H](NC(=O)[C@H](CC(C)C)NC(=O)[C@H](CCC(=O)O)NC(=O)[C@H](CC(=O)O)NC(=O)[C@H](CC(N)=O)NC(=O)[C@H](C)NC(=O)CNC(=O)[C@H](CC(C)C)NC(C)=O)C(=O)N[C@@H](CO)C(=O)N[C@@H](Cc1ccccc1)C(=O)N[C@@]1(C)CCCC=CCCC[C@@](C)(C(=O)N[C@@H](CCC(N)=O)C(=O)N[C@@H](CCC(=O)O)C(=O)N[C@@H](CCC(=O)O)C(=O)N[C@@H](CCCCN)C(=O)N[C@@H](CO)C(=O)N[C@@H](CO)C(=O)N[C@@H](CC(N)=O)C(N)=O)NC(=O)CNC(=O)[C@H](CCC(=O)O)NC(=O)[C@H](CC(=O)O)NC1=O
B2: SP18 (peptide)
peptide: Ac-LGANDELISFKDEG[S5]QEE[S5]SSN-NH2
modifications: staple 15-19
SMILES: CC[C@H](C)[C@H](NC(=O)[C@H](CC(C)C)NC(=O)[C@H](CCC(=O)O)NC(=O)[C@H](CC(=O)O)NC(=O)[C@H](CC(N)=O)NC(=O)[C@H](C)NC(=O)CNC(=O)[C@H](CC(C)C)NC(C)=O)C(=O)N[C@@H](CO)C(=O)N[C@@H](Cc1ccccc1)C(=O)N[C@@H](CCCCN)C(=O)N[C@@H](CC(=O)O)C(=O)N[C@@H](CCC(=O)O)C(=O)NCC(=O)N[C@@]1(C)CCCC=CCCC[C@@](C)(C(=O)N[C@@H](CO)C(=O)N[C@@H](CO)C(=O)N[C@@H](CC(N)=O)C(N)=O)NC(=O)[C@H](CCC(=O)O)NC(=O)[C@H](CCC(=O)O)NC(=O)[C@H](CCC(N)=O)NC1=O
B3: SP20 (peptide)
peptide: Ac-LGANDELISF[R8]DEGEQE[S5]KSSN-NH2
modifications: staple 11-18
SMILES: CC[C@H](C)[C@H](NC(=O)[C@H](CC(C)C)NC(=O)[C@H](CCC(=O)O)NC(=O)[C@H](CC(=O)O)NC(=O)[C@H](CC(N)=O)NC(=O)[C@H](C)NC(=O)CNC(=O)[C@H](CC(C)C)NC(C)=O)C(=O)N[C@@H](CO)C(=O)N[C@@H](Cc1ccccc1)C(=O)N[C@]1(C)CCCCCCC=CCCC[C@@](C)(C(=O)N[C@@H](CCCCN)C(=O)N[C@@H](CO)C(=O)N[C@@H](CO)C(=O)N[C@@H](CC(N)=O)C(N)=O)NC(=O)[C@H](CCC(=O)O)NC(=O)[C@H](CCC(N)=O)NC(=O)[C@H](CCC(=O)O)NC(=O)CNC(=O)[C@H](CCC(=O)O)NC(=O)[C@H](CC(=O)O)NC1=O
B4: SP17 (peptide)
peptide: Ac-LGANDELISFK[S5]EGE[S5]EEKSSN-NH2
modifications: staple 12-16
SMILES: CC[C@H](C)[C@H](NC(=O)[C@H](CC(C)C)NC(=O)[C@H](CCC(=O)O)NC(=O)[C@H](CC(=O)O)NC(=O)[C@H](CC(N)=O)NC(=O)[C@H](C)NC(=O)CNC(=O)[C@H](CC(C)C)NC(C)=O)C(=O)N[C@@H](CO)C(=O)N[C@@H](Cc1ccccc1)C(=O)N[C@@H](CCCCN)C(=O)N[C@@]1(C)CCCC=CCCC[C@@](C)(C(=O)N[C@@H](CCC(=O)O)C(=O)N[C@@H](CCC(=O)O)C(=O)N[C@@H](CCCCN)C(=O)N[C@@H](CO)C(=O)N[C@@H](CO)C(=O)N[C@@H](CC(N)=O)C(N)=O)NC(=O)[C@H](CCC(=O)O)NC(=O)CNC(=O)[C@H](CCC(=O)O)NC1=O
B5: SP19 (peptide)
peptide: Ac-LGANDELISFKDEGE[S5]EEK[S5]SN-NH2
modifications: staple 16-20
SMILES: CC[C@H](C)[C@H](NC(=O)[C@H](CC(C)C)NC(=O)[C@H](CCC(=O)O)NC(=O)[C@H](CC(=O)O)NC(=O)[C@H](CC(N)=O)NC(=O)[C@H](C)NC(=O)CNC(=O)[C@H](CC(C)C)NC(C)=O)C(=O)N[C@@H](CO)C(=O)N[C@@H](Cc1ccccc1)C(=O)N[C@@H](CCCCN)C(=O)N[C@@H](CC(=O)O)C(=O)N[C@@H](CCC(=O)O)C(=O)NCC(=O)N[C@@H](CCC(=O)O)C(=O)N[C@@]1(C)CCCC=CCCC[C@@](C)(C(=O)N[C@@H](CO)C(=O)N[C@@H](CC(N)=O)C(N)=O)NC(=O)[C@H](CCCCN)NC(=O)[C@H](CCC(=O)O)NC(=O)[C@H](CCC(=O)O)NC1=O
B6: SP60 (peptide)
peptide: Ac-LGANDELISF[S5]NQG[S5]QAAKSSNNSSA[S5]RNL[S5]AVKSSLV-NH2
modifications: staple 11-15, 27-31
SMILES: CC[C@H](C)[C@H](NC(=O)[C@H](CC(C)C)NC(=O)[C@H](CCC(=O)O)NC(=O)[C@H](CC(=O)O)NC(=O)[C@H](CC(N)=O)NC(=O)[C@H](C)NC(=O)CNC(=O)[C@H](CC(C)C)NC(C)=O)C(=O)N[C@@H](CO)C(=O)N[C@@H](Cc1ccccc1)C(=O)N[C@@]1(C)CCCC=CCCC[C@@](C)(C(=O)N[C@@H](CCC(N)=O)C(=O)N[C@@H](C)C(=O)N[C@@H](C)C(=O)N[C@@H](CCCCN)C(=O)N[C@@H](CO)C(=O)N[C@@H](CO)C(=O)N[C@@H](CC(N)=O)C(=O)N[C@@H](CC(N)=O)C(=O)N[C@@H](CO)C(=O)N[C@@H](CO)C(=O)N[C@@H](C)C(=O)N[C@@]2(C)CCCC=CCCC[C@@](C)(C(=O)N[C@@H](C)C(=O)N[C@H](C(=O)N[C@@H](CCCCN)C(=O)N[C@@H](CO)C(=O)N[C@@H](CO)C(=O)N[C@@H](CC(C)C)C(=O)N[C@H](C(N)=O)C(C)C)C(C)C)NC(=O)[C@H](CC(C)C)NC(=O)[C@H](CC(N)=O)NC(=O)[C@H](CCCNC(=N)N)NC2=O)NC(=O)CNC(=O)[C@H](CCC(N)=O)NC(=O)[C@H](CC(N)=O)NC1=O
B7: SP62 (peptide)
peptide: LGANDELISFANEGAQEEKSSNNSSAARDLADVKSSLV
modifications: not fully specified; N-terminal acetyl; C-terminal amide; $ = (S)-alpha-(2'-pentenyl)alanine at positions 11 and 15 (first crosslink) and 27 and 31 (second crosslink), each pair joined by an all-carbon crosslinker with one double bond
B8: SP61 (peptide)
peptide: Ac-LGANDELISW[S5]DEG[S5]QQEKSSENSSA[S5]RDL[S5]NVKSSLV-NH2
modifications: staple 11-15, 27-31
SMILES: CC[C@H](C)[C@H](NC(=O)[C@H](CC(C)C)NC(=O)[C@H](CCC(=O)O)NC(=O)[C@H](CC(=O)O)NC(=O)[C@H](CC(N)=O)NC(=O)[C@H](C)NC(=O)CNC(=O)[C@H](CC(C)C)NC(C)=O)C(=O)N[C@@H](CO)C(=O)N[C@@H](Cc1c[nH]c2ccccc12)C(=O)N[C@@]1(C)CCCC=CCCC[C@@](C)(C(=O)N[C@@H](CCC(N)=O)C(=O)N[C@@H](CCC(N)=O)C(=O)N[C@@H](CCC(=O)O)C(=O)N[C@@H](CCCCN)C(=O)N[C@@H](CO)C(=O)N[C@@H](CO)C(=O)N[C@@H](CCC(=O)O)C(=O)N[C@@H](CC(N)=O)C(=O)N[C@@H](CO)C(=O)N[C@@H](CO)C(=O)N[C@@H](C)C(=O)N[C@@]2(C)CCCC=CCCC[C@@](C)(C(=O)N[C@@H](CC(N)=O)C(=O)N[C@H](C(=O)N[C@@H](CCCCN)C(=O)N[C@@H](CO)C(=O)N[C@@H](CO)C(=O)N[C@@H](CC(C)C)C(=O)N[C@H](C(N)=O)C(C)C)C(C)C)NC(=O)[C@H](CC(C)C)NC(=O)[C@H](CC(=O)O)NC(=O)[C@H](CCCNC(=N)N)NC2=O)NC(=O)CNC(=O)[C@H](CCC(=O)O)NC(=O)[C@H](CC(=O)O)NC1=O
B9: SP63 (peptide)
peptide: Ac-LGANDELISF[S5]NEG[S5]QAEKSSNNSSA[S5]RNL[S5]DVKSSLV-NH2
modifications: staple 11-15, 27-31
SMILES: CC[C@H](C)[C@H](NC(=O)[C@H](CC(C)C)NC(=O)[C@H](CCC(=O)O)NC(=O)[C@H](CC(=O)O)NC(=O)[C@H](CC(N)=O)NC(=O)[C@H](C)NC(=O)CNC(=O)[C@H](CC(C)C)NC(C)=O)C(=O)N[C@@H](CO)C(=O)N[C@@H](Cc1ccccc1)C(=O)N[C@@]1(C)CCCC=CCCC[C@@](C)(C(=O)N[C@@H](CCC(N)=O)C(=O)N[C@@H](C)C(=O)N[C@@H](CCC(=O)O)C(=O)N[C@@H](CCCCN)C(=O)N[C@@H](CO)C(=O)N[C@@H](CO)C(=O)N[C@@H](CC(N)=O)C(=O)N[C@@H](CC(N)=O)C(=O)N[C@@H](CO)C(=O)N[C@@H](CO)C(=O)N[C@@H](C)C(=O)N[C@@]2(C)CCCC=CCCC[C@@](C)(C(=O)N[C@@H](CC(=O)O)C(=O)N[C@H](C(=O)N[C@@H](CCCCN)C(=O)N[C@@H](CO)C(=O)N[C@@H](CO)C(=O)N[C@@H](CC(C)C)C(=O)N[C@H](C(N)=O)C(C)C)C(C)C)NC(=O)[C@H](CC(C)C)NC(=O)[C@H](CC(N)=O)NC(=O)[C@H](CCCNC(=N)N)NC2=O)NC(=O)CNC(=O)[C@H](CCC(=O)O)NC(=O)[C@H](CC(N)=O)NC1=O
B10: SP64 (peptide)
peptide: B7 peptide with D29N
modifications: not fully specified; N-terminal acetyl; C-terminal amide; $ = (S)-alpha-(2'-pentenyl)alanine at positions 11 and 15 (first crosslink) and 27 and 31 (second crosslink), each pair joined by an all-carbon crosslinker with one double bond

Target: T1, C-terminally 6x Histidine-tagged …
Test: competitive fluorescence polarization, FAM-labelled linear probe as competitor, His-tagged beta-catenin 134-668
Procedure, shortened: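 FP competition in 25 mM Tris-HCl pH 7.5, 200 mM NaCl, 5 mM CHAPS, 2 mM DTT at room temperature. Competitor peptides at 40–0.7 μM 2× working range, constant DMSO. Probe (benchmark peptide with N-terminal FAM via β-Ala spacer) from 25 nM 10× stock. Read after 3 h in the dark, ex 485/em 528 nm.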

Binder | IC50 [µM]
B1 | ≥ 100
B2 | 60.1
B3 | ≥ 100
B4 | 52.9
B5 | ≥ 100
Ac-LGANDELISFKDEGEQEEKSS-NH2 (Linear, not crosslinked) [SP15] | 6.08
B6 | ≥ 100
B7 | 0.07
B8 | 1
B9 | 1.19
B10 | 0.541
